In assay [1] the target is T1, cynomolgus monkey CD47 (cynomolgus monkey, UniProt A0A2K5X523 19-135).
T1 construct: Soluble analyte in SPR; construct not described; also called Cyno CD47
The experiment in a line: SPR, decoy captured on biotinylated Protein A (NLC chip), CD47 as analyte. A general note: SPR reads the build-up and loss of mass on a sensor chip optically.

Assay [2] deals with T2, mouse CD47 (mouse, UniProt Q61735 19-140, limits assumed).
T2 construct: Soluble analyte in SPR; construct not described
T2 sequence (looked up): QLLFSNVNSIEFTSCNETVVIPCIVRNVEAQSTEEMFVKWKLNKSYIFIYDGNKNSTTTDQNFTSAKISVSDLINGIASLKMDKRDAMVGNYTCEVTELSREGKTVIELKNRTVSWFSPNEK
The description is as above.

Assay [3] concerns the target T3, human CD47 (human, UniProt Q08722 19-135).
T3 construct: Soluble analyte in SPR; also called hCD47
Description: SPR; the reference itself (wild type SIRPγ D1 domain).

For assay [4], the target named is T3, human CD47. The experiment in a line: SPR, decoy captured on biotinylated Protein A, CD47 as analyte, 25 C. The procedure: (§1) The binding affinities each decoy polypeptides for CD47 from various species (e.g., human CD47, cynomolgus monkey CD47, and mouse CD47) were determined using indirect capture via biotinylated Protein A (via NLC chip). All experiments were performed at 25° C. using a Surface Plasmon Resonance (SPR)-based ProteOn XPR36 biosensor (BioRad, Inc., Hercules, Calif.). The running buffer was PBS at pH 7.4 with 0.01% Tween-20 (PBST+). All analytes were used at their nominal concentrations as determined by A₂₈₀ absorbance and using their molar calculated extinction coefficients.
(§2) As a first step, 15 μg/mL biotinylated protein A (Thermofisher) was injected at 30 μL/min for 120 seconds over the NLC chip to obtain an immobilization response of about 1000-1200 RUs. Next, decoy polypeptides (about 100-160 nM) were injected for 80 seconds at 30 μL/min. The CD47 analytes (from human, cynomolgus monkey, and mouse) were subsequently injected in a “one-shot” kinetic mode at nominal concentrations of 100 nM, 33 nM, 11 nM, 3.7 nM, 1.2 nM, and 0 nM. Association times were monitored for 60 seconds at 25 μL/min, and dissociation times were monitored for 500 seconds. The surfaces were regenerated with a 2:1 v/v blend of Pierce IgG elution buffer/4M NaCl. Biosensor data were double-referenced by subtracting the interspot data (containing no immobilized protein) from the reaction spot data (immobilized protein) and then subtracting the response of a buffer “blank” analyte injection from that of an analyte injection. Double-referenced data were fit globally to a simple Langmuir model and the KD value was calculated from the ratio of the apparent kinetic rate constants (KD=kd/kₐ).

The target in assay [5] is T3, human CD47. The description is as above. Here is the method:
as §1, §2
This is another data set of the same source.

Where two headings read alike, the source gives them in different places.

The term Kd denotes the constant that tells how readily two partners part at equilibrium.

T3 sequence (Q08722 other isoform, or with tags, fused parts or gaps limits assumed): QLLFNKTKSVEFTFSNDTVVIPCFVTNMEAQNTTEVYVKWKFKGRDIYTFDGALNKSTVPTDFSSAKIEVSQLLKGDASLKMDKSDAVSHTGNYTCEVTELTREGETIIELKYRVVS

B1: Decoy polypeptide R (Fc fusion)
chain: EEELQMIQPEKLLLVTVGKTATLHCTVTSLLPVGPVLWFRGVGPGRELIYNQKEGHFPRVTTVSDLTKRNNMDFSIRISSITPADVGTYYCVKFRKGSPENVEFKSGPGTEMALGAKPSDKTHTCPPCPAPEAAGAPSVFLFPPKPKDTLMISRTPEVTCVVVDVSHEDPEVKFNWYVDGVEVHNAKTKPREEQYASTYRVVSVLTVLHQDWLNGKEYKCKVSNKALPAPIEKTISKAKGQPREPQVYTLPPSREEMTKNQVSLTCLVKGFYPSDIAVEWESNGQPENNYKTTPPVLDSDGSFFLYSKLTVDKSRWQQGNVFSCSVMHEALHNHYTQKSLSLSPG
notes: also called wild type SIRPγ
For B1, the binding result in assay [1] and in assay [2] was “no binding (tested: CD47 analyte up to 100 nM)” in each case. Moreover, the “Fold improvement in KD vs wild type” value in assay [3] was 1 fold. The Kd in assay [4] and in assay [5] was 2190 nM in each case.

The values are drawn from patent US20210347848A1 (ALX ONCOLOGY, published 2021).
